Experiments:
Assay in all cases: cell-based or functional assay
Human TLL2 = target: T1, Human TLL2 (human, UniProt Q9Y6L7 150-1015, limits assumed)
T1 sequence (looked up): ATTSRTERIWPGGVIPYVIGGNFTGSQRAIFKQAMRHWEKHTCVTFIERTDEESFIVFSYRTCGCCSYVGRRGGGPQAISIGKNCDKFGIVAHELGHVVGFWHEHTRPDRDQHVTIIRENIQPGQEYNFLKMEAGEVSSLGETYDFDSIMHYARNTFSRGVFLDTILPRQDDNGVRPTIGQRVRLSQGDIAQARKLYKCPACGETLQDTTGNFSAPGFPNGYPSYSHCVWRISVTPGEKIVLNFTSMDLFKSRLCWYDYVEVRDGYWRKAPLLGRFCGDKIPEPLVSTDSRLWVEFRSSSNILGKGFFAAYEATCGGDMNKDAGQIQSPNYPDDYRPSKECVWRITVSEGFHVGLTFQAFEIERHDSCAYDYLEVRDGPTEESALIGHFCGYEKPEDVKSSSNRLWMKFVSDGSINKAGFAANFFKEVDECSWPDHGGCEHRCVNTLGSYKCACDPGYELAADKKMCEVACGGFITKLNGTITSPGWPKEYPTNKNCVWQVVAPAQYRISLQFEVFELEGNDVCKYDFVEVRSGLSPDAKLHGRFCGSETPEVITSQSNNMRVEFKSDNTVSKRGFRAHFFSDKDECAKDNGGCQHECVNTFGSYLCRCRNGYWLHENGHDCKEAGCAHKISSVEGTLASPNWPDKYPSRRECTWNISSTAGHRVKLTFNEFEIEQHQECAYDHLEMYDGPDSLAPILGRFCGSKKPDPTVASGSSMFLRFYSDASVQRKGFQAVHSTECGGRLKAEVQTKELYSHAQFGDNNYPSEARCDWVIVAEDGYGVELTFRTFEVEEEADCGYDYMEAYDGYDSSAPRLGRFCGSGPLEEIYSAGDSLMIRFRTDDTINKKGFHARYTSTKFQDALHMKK

Cyno TLL1 = target: T2, Cyno TLL1 (cyno, UniProt A0A1D5QYV0 148-1013 (rhesus entry))
T2 sequence: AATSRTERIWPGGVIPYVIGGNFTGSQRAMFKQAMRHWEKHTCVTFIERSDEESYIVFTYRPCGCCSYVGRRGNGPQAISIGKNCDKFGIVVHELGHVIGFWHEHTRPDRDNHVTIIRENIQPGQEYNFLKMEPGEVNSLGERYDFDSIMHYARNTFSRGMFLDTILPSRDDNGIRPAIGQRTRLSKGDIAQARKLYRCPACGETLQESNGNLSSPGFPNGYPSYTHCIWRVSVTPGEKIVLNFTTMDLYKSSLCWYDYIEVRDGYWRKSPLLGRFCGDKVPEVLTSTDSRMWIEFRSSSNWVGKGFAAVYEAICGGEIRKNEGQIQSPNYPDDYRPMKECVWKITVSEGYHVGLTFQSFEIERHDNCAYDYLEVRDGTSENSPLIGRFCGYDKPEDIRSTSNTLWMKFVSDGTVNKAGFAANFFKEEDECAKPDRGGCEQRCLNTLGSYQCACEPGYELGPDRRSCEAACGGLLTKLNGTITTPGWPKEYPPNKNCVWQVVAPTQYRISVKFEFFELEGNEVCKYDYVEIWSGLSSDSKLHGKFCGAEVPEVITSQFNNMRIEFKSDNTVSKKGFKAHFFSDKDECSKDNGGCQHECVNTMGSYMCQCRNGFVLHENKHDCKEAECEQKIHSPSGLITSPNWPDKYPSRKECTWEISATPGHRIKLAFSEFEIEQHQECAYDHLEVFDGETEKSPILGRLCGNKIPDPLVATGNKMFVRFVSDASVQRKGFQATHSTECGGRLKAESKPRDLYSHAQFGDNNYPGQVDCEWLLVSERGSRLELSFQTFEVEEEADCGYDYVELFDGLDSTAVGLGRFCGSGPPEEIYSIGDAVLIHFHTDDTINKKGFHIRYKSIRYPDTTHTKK

Mouse TLL1 = target: T3, Mouse TLL1 (mouse, UniProt Q62381 148-1013, limits assumed)
T3 sequence (looked up): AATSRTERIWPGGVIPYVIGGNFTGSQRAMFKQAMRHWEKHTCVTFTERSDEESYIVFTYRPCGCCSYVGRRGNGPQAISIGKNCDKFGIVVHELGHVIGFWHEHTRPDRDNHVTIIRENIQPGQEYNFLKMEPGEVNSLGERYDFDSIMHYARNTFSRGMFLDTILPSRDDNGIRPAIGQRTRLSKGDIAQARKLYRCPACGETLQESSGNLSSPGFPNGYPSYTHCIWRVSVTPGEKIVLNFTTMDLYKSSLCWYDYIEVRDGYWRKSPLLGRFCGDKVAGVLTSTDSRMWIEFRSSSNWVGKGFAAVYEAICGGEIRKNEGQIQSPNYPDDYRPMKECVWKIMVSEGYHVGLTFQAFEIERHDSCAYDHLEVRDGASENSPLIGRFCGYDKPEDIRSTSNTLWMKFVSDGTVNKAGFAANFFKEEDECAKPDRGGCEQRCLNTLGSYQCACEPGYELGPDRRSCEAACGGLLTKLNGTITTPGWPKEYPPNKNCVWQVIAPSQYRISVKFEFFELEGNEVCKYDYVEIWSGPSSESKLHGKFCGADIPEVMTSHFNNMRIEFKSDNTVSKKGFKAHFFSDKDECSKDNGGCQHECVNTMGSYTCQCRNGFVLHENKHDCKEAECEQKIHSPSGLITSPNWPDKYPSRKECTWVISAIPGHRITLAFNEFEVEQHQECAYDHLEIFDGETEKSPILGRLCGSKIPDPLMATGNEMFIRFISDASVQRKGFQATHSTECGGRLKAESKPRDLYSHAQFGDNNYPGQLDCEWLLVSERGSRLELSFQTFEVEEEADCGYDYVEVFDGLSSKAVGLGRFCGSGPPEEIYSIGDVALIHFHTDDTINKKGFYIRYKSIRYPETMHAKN

| Binder | IC50, FRET enzyme activity, 500 pM huTLL-2 (Human TLL2) | IC50, FRET enzyme activity, 750 pM biotinylated cynoTLL-1 (Cyno TLL1) | IC50, FRET enzyme activity, 800 pM biotinylated mTLL-1 (Mouse TLL1) |
| --- | --- | --- | --- |
| 13Y039-4B06-4324 (antibody, human IgG1, kappa, V domains shown, Fully human IgG1 LAGA, kappa; HEK expressed) VH: QVQLVQSGAEVKKPGASVKVSCKASGYTFRGYYMSWVRQAPGQGLEWMGWINPMSGETNYAQKFQGRVTMTRDTSISTAYMELSRLRSDDTAVYYCARDTGELDGMNWYFDLWGRGTLVTVSS VL: EIVLTQSPATLSLSPGERATLSCRASQSVSSYLAWYQQKPGQAPRLLIYDASNRATGIPARFSGSGSGTDFTLTISSLEPEDFAVYYCQQSDSWPPTFGGGTKVEIKR | 0.04 nM | 0.07 nM | 0.1 nM |
| 13Y039-4B06-4325 (antibody, human IgG1, kappa, V domains shown, Fully human IgG1 LAGA, kappa; HEK expressed) VH: QVQLVQSGAEVKKPGASVKVSCKASGYTFWGYYMSWVRQAPGQGLEWMGWINPQSGETNYAQKFQGRVTMTRDTSISTAYMELSRLRSDDTAVYYCARDTGELDGMNWYFDLWGRGTLVTVSS VL: EIVLTQSPATLSLSPGERATLSCRASQSVSSYLAWYQQKPGQAPRLLIYDASNRATGIPARFSGSGSGTDFTLTISSLEPEDFAVYYCQQSDSWPPTFGGGTKVEIKR | 0.05 nM | 0.05 nM | 0.07 nM |
| 13Y039-4B06-4351 (antibody, human IgG1, kappa, V domains shown, Fully human IgG1 LAGA, kappa; HEK expressed) VH: QVQLVQSGAEVKKPGASVKVSCKASGYTFSGYYMSWVRQAPGQGLEWMGWINPNSGETFYAQKFQGRVTMTRDTSISTAYMELSRLRSDDTAVYYCARDTGELDGMNWYFDLWGRGTLVTVSS VL: EIVLTQSPATLSLSPGERATLSCRASQSVSSYLAWYQQKPGQAPRLLIYDASNRATGIPARFSGSGSGTDFTLTISSLEPEDFAVYYCQQSDSWPPTFGGGTKVEIKR | 0.03 nM | 0.13 nM | 0.14 nM |
| 13Y039-4B06-4348 (antibody, human IgG1, kappa, V domains shown, Fully human IgG1 LAGA, kappa; HEK expressed) VH: QVQLVQSGAEVKKPGASVKVSCKASGYTFGGYYMSWVRQAPGQGLEWMGWINPNSGETYYAQKFQGRVTMTRDTSISTAYMELSRLRSDDTAVYYCARDTGELDGMNWYFDLWGRGTLVTVSS VL: EIVLTQSPATLSLSPGERATLSCRASQSVSSYLAWYQQKPGQAPRLLIYDASNRATGIPARFSGSGSGTDFTLTISSLEPEDFAVYYCQQSDSWPPTFGGGTKVEIKR | 0.04 nM | 0.18 nM | 0.12 nM |
| 13Y039-4B06-4327 (antibody, human IgG1, kappa, V domains shown, Fully human IgG1 LAGA, kappa; HEK expressed) VH: QVQLVQSGAEVKKPGASVKVSCKASGYTFPGYYMTWVRQAPGQGLEWMGNINPNSGWTNYAQKFQGRVTMTRDTSISTAYMELSRLRSDDTAVYYCARDTGELDGMNWYFDLWGRGTLVTVSS VL: EIVLTQSPATLSLSPGERATLSCRASQSVSSYLAWYQQKPGQAPRLLIYDASNRATGIPARFSGSGSGTDFTLTISSLEPEDFAVYYCQQSDSWPPTFGGGTKVEIKR | 0.03 nM | 0.02 nM | 0.04 nM |
| 13Y039-4B06-4328 (antibody, human IgG1, kappa, V domains shown, Fully human IgG1 LAGA, kappa; HEK expressed) VH: QVQLVQSGAEVKKPGASVKVSCKASGYTFHGYYMNWVRQAPGQGLEWMGWINPLSGETNYAQKFQGRVTMTRDTSISTAYMELSRLRSDDTAVYYCARDTGELDGMNWYFDLWGRGTLVTVSS VL: EIVLTQSPATLSLSPGERATLSCRASQSVSSYLAWYQQKPGQAPRLLIYDASNRATGIPARFSGSGSGTDFTLTISSLEPEDFAVYYCQQSDSWPPTFGGGTKVEIKR | 0.02 nM | 0.07 nM | 0.07 nM |
| 13Y039-127G03-2890 (antibody, human IgG1, kappa, V domains shown, Fully human IgG1 LAGA, kappa; HEK expressed) VH: QVQLVQSGAEVKKPGSSVKVSCKASGGTFSSYAISWVRQAPGQGLEWMGGIIPVFGSAYYAQKFQGRVTITADESTSTAYMELSSLRSEDTAVYYCAGEGRAYYGSESYDDSDYMDVWGKGTTVTVSS VL: DIQMTQSPSSLSASVGDRVTITCQASQDISNYLNWYQQKPGKAPKLLIYDASNLETGVPSRFSGSGSGTDFTFTISSLQPEDIATYYCQQADIFPLTFGGGTKVEIKR | 0.15 nM | 0.22 nM | 0.88 nM |
| 13Y039-152B02-2940 (antibody, human IgG1, kappa, V domains shown, Fully human IgG1 LAGA, kappa; HEK expressed) VH: QVQLVQSGAEVKKPGSSVKVSCKASGGTFSSDAISWVRQAPGQGLEWMGGIITNFGTATYAQKFQGRVTITADESTSTAYMELSSLRSEDTAVYYCARDVGVQLVYHGAFDIWGQGTMVTVSS VL: DIQMTQSPSSLSASVGDRVTITCQASQDISNYLNWYQQKPGKAPKLLIYDASNLATGVPSRFSGSGSGTDFTFTISSLQPEDIATYYCQQDDYLPITFGGGTKVEIKR | 0.28 nM | 0.06 nM | 0.1 nM |
| 13Y039-152B02-2948 (antibody, human IgG1, kappa, V domains shown, Fully human IgG1 LAGA, kappa; HEK expressed) VH: QVQLVQSGAEVKKPGSSVKVSCKASGGTFSDFAISWVRQAPGQGLEWMGGIIPIYGTASYAQKFLGRVTITADESTSTAYMELSSLRSEDTAVYYCARDVGVQLVYHGAFDIWGQGTMVTVSS VL: DIQMTQSPSSLSASVGDRVTITCQASQDISNYLNWYQQKPGKAPKLLIYDASNLATGVPSRFSGSGSGTDFTFTISSLQPEDIATYYCQQDDYLPITFGGGTKVEIKR | 0.86 nM | 0.07 nM | 0.11 nM |
| 13Y039-152B02-2935 (antibody, human IgG1, kappa, V domains shown, Fully human IgG1 LAGA, kappa; HEK expressed) VH: QVQLVQSGAEVKKPGSSVKVSCKASGGTFSESAISWVRQAPGQGLEWMGGIIPTFDTTNYAQKFQGRVTITADESTSTAYMELSSLRSEDTAVYYCARDVGVQLVYHGAFDIWGQGTMVTVSS VL: DIQMTQSPSSLSASVGDRVTITCQASQDISNYLNWYQQKPGKAPKLLIYDASNLATGVPSRFSGSGSGTDFTFTISSLQPEDIATYYCQQDDYLPITFGGGTKVEIKR | 0.2 nM | 0.11 nM | 0.07 nM |
